As usually defined, the stoichiometry N is a count of units in the complex or per binding partner.

In one series the target is T1, 3xFlag-LRRK1 (Homo sapiens, UniProt Q38SD2).
T1 construct: homodimer
Nature of the series: pulldown from cell lysate on ATP-agarose, competed by free ATP. In kind it is binding. As to conditions: ATP-depleted lysate, pH 7.4, 5 mM MgCl2, 4°C; competed by 1 mM ATP, not GTP; kinase domain site.

Another series addresses T2, 3xFlag-LRRK2 (Homo sapiens, UniProt Q5S007).
T2 construct: homodimer
The description is as above. Particulars: ATP-depleted lysate, pH 7.4, 5 mM MgCl2, 4°C; competed by 1 mM ATP, not GTP; kinase domain site. The series is classed as binding.

Series [1] addresses 3xFlag-LRRK2 T1348N GTP deficient binding mutant, full-length (human) (UniProt Q5S007). Nature of the series: immunogold labelling + negative-stain transmission electron microscopy; purified 3xFlag proteins diluted to 5 ng/ul in 20 mM Tris-HCl pH 7.5, 150 mM NaCl, 0.02% Tween 20 or Triton X-100; uranyl acetate stain; anti-Flag M2 primary and 5 nm gold secondary antibody; distances between gold particles and particle diameters measured.

Series [2] concerns the target 3xFlag-LRRK2 K1906M kinase dead mutant, full-length (human) (UniProt Q5S007). Described as above.
The target of series [3] is 3xFlag-LRRK1 wild-type (leucine-rich repeat kinase 1), full-length (human) (UniProt Q38SD2). Described as above.
The target in series [4] is 3xFlag-LRRK1 K650A GTP deficient binding mutant, full-length (human) (UniProt Q38SD2). The series is described as above.
The target in series [5] is 3xFlag-LRRK2 G2019S pathogenic mutant, full-length (human) (UniProt Q5S007). The series is described as above. As to conditions: remark: other sources report otherwise.
Series [6] deals with the molecule itself. The description is as above.

T1 sequence (Q38SD2 28-2015): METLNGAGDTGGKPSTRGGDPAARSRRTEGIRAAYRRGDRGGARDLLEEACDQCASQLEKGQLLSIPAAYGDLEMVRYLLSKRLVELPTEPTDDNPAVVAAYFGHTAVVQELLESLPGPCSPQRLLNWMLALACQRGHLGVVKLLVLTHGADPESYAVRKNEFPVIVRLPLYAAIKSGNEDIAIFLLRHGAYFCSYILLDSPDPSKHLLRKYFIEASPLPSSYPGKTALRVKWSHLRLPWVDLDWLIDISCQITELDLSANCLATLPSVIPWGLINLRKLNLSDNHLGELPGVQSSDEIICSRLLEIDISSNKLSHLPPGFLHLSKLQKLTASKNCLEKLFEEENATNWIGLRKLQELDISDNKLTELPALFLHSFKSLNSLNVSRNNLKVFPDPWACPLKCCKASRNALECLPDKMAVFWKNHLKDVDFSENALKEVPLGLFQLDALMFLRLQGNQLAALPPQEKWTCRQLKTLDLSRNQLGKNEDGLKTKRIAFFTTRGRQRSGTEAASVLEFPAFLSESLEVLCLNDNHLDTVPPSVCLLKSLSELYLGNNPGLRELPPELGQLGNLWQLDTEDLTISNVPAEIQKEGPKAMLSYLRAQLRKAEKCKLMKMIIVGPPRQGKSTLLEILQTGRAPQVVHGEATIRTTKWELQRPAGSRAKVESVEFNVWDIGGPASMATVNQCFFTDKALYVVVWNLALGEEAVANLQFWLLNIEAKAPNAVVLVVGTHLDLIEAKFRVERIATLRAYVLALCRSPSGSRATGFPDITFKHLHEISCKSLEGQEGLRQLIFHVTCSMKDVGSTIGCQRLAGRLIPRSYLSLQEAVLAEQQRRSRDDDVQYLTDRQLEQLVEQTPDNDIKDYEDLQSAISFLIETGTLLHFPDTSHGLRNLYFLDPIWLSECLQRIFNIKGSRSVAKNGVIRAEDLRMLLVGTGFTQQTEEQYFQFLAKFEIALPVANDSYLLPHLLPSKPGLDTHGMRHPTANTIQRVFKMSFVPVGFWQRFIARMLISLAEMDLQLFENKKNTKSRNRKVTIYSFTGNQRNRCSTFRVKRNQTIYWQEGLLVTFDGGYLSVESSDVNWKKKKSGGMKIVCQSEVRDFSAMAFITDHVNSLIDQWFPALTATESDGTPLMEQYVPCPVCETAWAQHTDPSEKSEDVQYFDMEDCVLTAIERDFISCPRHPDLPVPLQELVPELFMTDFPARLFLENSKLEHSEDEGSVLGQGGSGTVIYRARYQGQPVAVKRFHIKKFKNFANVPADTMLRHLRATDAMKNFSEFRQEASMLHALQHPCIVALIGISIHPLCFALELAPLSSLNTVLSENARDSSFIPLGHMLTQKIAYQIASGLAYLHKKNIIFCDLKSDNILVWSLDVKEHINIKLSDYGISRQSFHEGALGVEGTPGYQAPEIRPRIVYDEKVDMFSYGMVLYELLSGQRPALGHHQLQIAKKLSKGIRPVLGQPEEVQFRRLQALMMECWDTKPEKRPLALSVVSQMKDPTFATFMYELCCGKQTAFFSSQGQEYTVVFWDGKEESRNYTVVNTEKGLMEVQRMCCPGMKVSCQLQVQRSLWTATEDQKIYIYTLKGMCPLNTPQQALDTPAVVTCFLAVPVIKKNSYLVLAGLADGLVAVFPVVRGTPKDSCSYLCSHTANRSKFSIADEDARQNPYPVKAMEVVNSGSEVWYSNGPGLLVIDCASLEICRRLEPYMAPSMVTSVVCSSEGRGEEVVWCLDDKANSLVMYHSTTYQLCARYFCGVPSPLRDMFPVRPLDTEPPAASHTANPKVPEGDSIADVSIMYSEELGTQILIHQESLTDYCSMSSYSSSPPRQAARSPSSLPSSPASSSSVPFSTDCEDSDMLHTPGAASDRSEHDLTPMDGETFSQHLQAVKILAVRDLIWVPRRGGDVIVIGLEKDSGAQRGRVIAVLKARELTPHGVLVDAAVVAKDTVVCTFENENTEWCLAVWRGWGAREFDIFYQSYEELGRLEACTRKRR
T2 sequence (Q5S007 whole entry): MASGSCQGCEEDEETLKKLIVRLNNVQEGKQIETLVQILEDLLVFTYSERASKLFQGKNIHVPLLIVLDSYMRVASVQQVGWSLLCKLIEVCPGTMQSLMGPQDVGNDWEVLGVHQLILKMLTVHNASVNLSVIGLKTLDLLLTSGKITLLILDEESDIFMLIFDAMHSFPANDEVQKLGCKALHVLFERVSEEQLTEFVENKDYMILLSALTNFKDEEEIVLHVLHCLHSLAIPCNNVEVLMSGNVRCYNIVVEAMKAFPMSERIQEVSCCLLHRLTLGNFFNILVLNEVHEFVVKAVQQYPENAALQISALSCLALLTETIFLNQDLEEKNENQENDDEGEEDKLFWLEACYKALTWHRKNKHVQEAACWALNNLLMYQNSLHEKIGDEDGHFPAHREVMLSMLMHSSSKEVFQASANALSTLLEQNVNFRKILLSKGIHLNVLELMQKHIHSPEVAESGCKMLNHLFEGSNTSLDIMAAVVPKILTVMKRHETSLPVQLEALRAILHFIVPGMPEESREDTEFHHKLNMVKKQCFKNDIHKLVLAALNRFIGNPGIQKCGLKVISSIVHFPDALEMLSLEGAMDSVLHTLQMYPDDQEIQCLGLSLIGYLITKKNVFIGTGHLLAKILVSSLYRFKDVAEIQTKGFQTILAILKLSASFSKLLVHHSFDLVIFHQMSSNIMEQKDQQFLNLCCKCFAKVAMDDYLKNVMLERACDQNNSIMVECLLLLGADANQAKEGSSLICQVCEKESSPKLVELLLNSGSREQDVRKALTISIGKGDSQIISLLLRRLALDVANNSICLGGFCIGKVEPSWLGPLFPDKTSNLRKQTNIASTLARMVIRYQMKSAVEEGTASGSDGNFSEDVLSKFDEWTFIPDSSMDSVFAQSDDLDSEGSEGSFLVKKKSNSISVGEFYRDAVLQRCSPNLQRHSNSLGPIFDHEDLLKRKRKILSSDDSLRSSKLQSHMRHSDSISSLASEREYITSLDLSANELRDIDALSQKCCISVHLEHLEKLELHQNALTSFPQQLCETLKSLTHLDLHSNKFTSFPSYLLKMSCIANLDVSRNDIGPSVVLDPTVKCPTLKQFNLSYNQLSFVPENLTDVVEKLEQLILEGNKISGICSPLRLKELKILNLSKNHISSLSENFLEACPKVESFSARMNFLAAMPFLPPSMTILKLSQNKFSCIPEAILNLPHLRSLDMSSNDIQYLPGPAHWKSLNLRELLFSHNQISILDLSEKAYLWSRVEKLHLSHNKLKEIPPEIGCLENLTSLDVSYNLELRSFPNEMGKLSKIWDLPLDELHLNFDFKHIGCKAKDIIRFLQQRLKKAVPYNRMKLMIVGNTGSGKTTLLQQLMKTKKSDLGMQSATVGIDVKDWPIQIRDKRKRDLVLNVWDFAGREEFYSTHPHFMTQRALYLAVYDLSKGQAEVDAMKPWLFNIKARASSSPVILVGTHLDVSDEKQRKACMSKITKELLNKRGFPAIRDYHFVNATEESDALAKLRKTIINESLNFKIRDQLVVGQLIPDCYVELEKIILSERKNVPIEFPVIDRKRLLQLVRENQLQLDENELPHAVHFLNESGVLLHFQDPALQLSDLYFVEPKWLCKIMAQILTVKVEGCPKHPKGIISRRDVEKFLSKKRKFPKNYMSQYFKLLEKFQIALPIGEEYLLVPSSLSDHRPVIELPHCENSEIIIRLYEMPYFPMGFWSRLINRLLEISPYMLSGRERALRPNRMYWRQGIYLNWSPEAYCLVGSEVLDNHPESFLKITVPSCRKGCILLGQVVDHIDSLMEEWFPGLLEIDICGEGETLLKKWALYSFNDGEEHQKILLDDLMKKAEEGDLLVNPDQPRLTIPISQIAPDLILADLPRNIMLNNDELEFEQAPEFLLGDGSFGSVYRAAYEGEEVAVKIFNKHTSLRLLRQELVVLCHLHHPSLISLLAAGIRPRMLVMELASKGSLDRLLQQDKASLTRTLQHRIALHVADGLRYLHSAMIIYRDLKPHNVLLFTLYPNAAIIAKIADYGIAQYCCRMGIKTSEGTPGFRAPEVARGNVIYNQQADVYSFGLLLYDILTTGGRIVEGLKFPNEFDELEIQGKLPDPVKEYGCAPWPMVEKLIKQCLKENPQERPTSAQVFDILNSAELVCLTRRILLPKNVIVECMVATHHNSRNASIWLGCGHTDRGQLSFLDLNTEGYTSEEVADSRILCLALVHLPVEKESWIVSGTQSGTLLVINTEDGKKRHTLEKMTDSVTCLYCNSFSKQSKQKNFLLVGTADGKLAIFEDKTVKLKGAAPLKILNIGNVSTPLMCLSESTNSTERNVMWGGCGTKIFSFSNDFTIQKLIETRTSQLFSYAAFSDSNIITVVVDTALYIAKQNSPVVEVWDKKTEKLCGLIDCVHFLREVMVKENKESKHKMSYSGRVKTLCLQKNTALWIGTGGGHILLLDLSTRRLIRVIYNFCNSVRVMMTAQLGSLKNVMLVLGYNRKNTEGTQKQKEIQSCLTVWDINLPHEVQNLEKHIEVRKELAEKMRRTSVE

With `Nc1ncnc2c1ncn2[C@@H]1O[C@H](COP(=O)(O)OP(=O)(O)OP(=O)(O)O)[C@@H](O)[C@H]1O` [ATP], the “pulldown from cell lysate on ATP-agarose, competed by free ATP” value on 3xFlag-LRRK1 and at 3xFlag-LRRK2 was “we confirm binding of both proteins to ATP using different ATP agarose beads” each time.

As for “3xFlag-LRRK2 T1348N GTP deficient binding mutant, full-length, Q5S007 1-2527”, in series [1], the stoichiometry N was found to be 2.

As to “3xFlag-LRRK2 K1906M kinase dead mutant, full-length, Q5S007 1-2527”, in series [2], the stoichiometry N worked out at 2.

Take “3xFlag-LRRK1 wild-type (leucine-rich repeat kinase 1), full-length (from UniProt Q38SD2 1-2015) (enzyme)”: the stoichiometry N in series [3] is 2.

On to “3xFlag-LRRK1 K650A GTP deficient binding mutant, full-length (from UniProt Q38SD2 1-2015) (enzyme)”, for which, in series [4], the stoichiometry N was found to be 2.

“3xFlag-LRRK2 G2019S pathogenic mutant, full-length, Q5S007 1-2527”: the stoichiometry N in series [5] was 2.

B1: 3xFlag-LRRK1 kinase dead mutant (K1269M; printed K1269W in the dimer experiment), full-length (enzyme)
chain: METLNGAGDTGGKPSTRGGDPAARSRRTEGIRAAYRRGDRGGARDLLEEACDQCASQLEKGQLLSIPAAYGDLEMVRYLLSKRLVELPTEPTDDNPAVVAAYFGHTAVVQELLESLPGPCSPQRLLNWMLALACQRGHLGVVKLLVLTHGADPESYAVRKNEFPVIVRLPLYAAIKSGNEDIAIFLLRHGAYFCSYILLDSPDPSKHLLRKYFIEASPLPSSYPGKTALRVKWSHLRLPWVDLDWLIDISCQITELDLSANCLATLPSVIPWGLINLRKLNLSDNHLGELPGVQSSDEIICSRLLEIDISSNKLSHLPPGFLHLSKLQKLTASKNCLEKLFEEENATNWIGLRKLQELDISDNKLTELPALFLHSFKSLNSLNVSRNNLKVFPDPWACPLKCCKASRNALECLPDKMAVFWKNHLKDVDFSENALKEVPLGLFQLDALMFLRLQGNQLAALPPQEKWTCRQLKTLDLSRNQLGKNEDGLKTKRIAFFTTRGRQRSGTEAASVLEFPAFLSESLEVLCLNDNHLDTVPPSVCLLKSLSELYLGNNPGLRELPPELGQLGNLWQLDTEDLTISNVPAEIQKEGPKAMLSYLRAQLRKAEKCKLMKMIIVGPPRQGKSTLLEILQTGRAPQVVHGEATIRTTKWELQRPAGSRAKVESVEFNVWDIGGPASMATVNQCFFTDKALYVVVWNLALGEEAVANLQFWLLNIEAKAPNAVVLVVGTHLDLIEAKFRVERIATLRAYVLALCRSPSGSRATGFPDITFKHLHEISCKSLEGQEGLRQLIFHVTCSMKDVGSTIGCQRLAGRLIPRSYLSLQEAVLAEQQRRSRDDDVQYLTDRQLEQLVEQTPDNDIKDYEDLQSAISFLIETGTLLHFPDTSHGLRNLYFLDPIWLSECLQRIFNIKGSRSVAKNGVIRAEDLRMLLVGTGFTQQTEEQYFQFLAKFEIALPVANDSYLLPHLLPSKPGLDTHGMRHPTANTIQRVFKMSFVPVGFWQRFIARMLISLAEMDLQLFENKKNTKSRNRKVTIYSFTGNQRNRCSTFRVKRNQTIYWQEGLLVTFDGGYLSVESSDVNWKKKKSGGMKIVCQSEVRDFSAMAFITDHVNSLIDQWFPALTATESDGTPLMEQYVPCPVCETAWAQHTDPSEKSEDVQYFDMEDCVLTAIERDFISCPRHPDLPVPLQELVPELFMTDFPARLFLENSKLEHSEDEGSVLGQGGSGTVIYRARYQGQPVAVWRFHIKKFKNFANVPADTMLRHLRATDAMKNFSEFRQEASMLHALQHPCIVALIGISIHPLCFALELAPLSSLNTVLSENARDSSFIPLGHMLTQKIAYQIASGLAYLHKKNIIFCDLKSDNILVWSLDVKEHINIKLSDYGISRQSFHEGALGVEGTPGYQAPEIRPRIVYDEKVDMFSYGMVLYELLSGQRPALGHHQLQIAKKLSKGIRPVLGQPEEVQFRRLQALMMECWDTKPEKRPLALSVVSQMKDPTFATFMYELCCGKQTAFFSSQGQEYTVVFWDGKEESRNYTVVNTEKGLMEVQRMCCPGMKVSCQLQVQRSLWTATEDQKIYIYTLKGMCPLNTPQQALDTPAVVTCFLAVPVIKKNSYLVLAGLADGLVAVFPVVRGTPKDSCSYLCSHTANRSKFSIADEDARQNPYPVKAMEVVNSGSEVWYSNGPGLLVIDCASLEICRRLEPYMAPSMVTSVVCSSEGRGEEVVWCLDDKANSLVMYHSTTYQLCARYFCGVPSPLRDMFPVRPLDTEPPAASHTANPKVPEGDSIADVSIMYSEELGTQILIHQESLTDYCSMSSYSSSPPRQAARSPSSLPSSPASSSSVPFSTDCEDSDMLHTPGAASDRSEHDLTPMDGETFSQHLQAVKILAVRDLIWVPRRGGDVIVIGLEKDSGAQRGRVIAVLKARELTPHGVLVDAAVVAKDTVVCTFENENTEWCLAVWRGWGAREFDIFYQSYEELGRLEACTRKRR
B1: the “stoichiometry N” value in series [6] stood at 2.

Source of the values: article PMC3430690 (PLoS ONE, 2012).
